54 variants from the RNAGym collection of RNA variant scans (doi:10.7554/elife.80360) can be followed below.

Sequences and labels used below:
B1: Twister Ribozyme (parent)
chain: AACACUGCCAAUGCCGGUCCCAAGCCCGGAUAAAAGUGGAGGGGGCGG

Variants of B1 are the subject of the data set. Kind of data set: self-cleavage, relative activity (ratio to wild type); higher = more cleavage; co-transcriptional.
Take AACACUGCCAAUGCCUGUCCCAAGCCCGGAUCAAAGUGGAGGGGGCGG: the self-cleavage is 1.1.
With AACACUGCCAAUGCCGGUCCCAAGCCCGGAUAAAAGUUGGGGGGGCGG the figure was 0.101; with UCCACUGCCAAUGCCGGUCCCAAGCCCGGAUAAAAGUGGAGGGGGCGG, 0.118.
As to AAUACUGCCAAUGCCGGUCCCAAGUCCGGAUAAAAGUGGAGGGGGCGG, the self-cleavage turned out to be 0.238.
Then AACACUGCCAAUGCCGUCCCCAAGCCCGGAUAAAAGUGGAGGGGGCGG, with 0.126; and AACACUGCCAAUGCCGUUGCCAAGCCCGGAUAAAAGUGGAGGGGGCGG, with 0.111.
With AACACUGCCAAUGCCGGUCCCAUGCCCGGAUAAAAAUGGAGGGGGCGG the figure was 0.132.
Then AACACUGCCACUGCGGGUCCCAAGCCCGGAUAAAAGUGGAGGGGGCGG, with 0.0591.
Turning to AACACUGCCAAUGCCGGUCCGAAGCCCGGAAAAAAGUGGAGGGGGCGG, the self-cleavage is 0.0515.
Then AACACUGCCAAUGCCGCUCCCAAGCCCGGAUAAAACUGGAGGGGGCGG, with 0.0812.
Then AAAACUGCCAAUGCCGGUCGCAAGCCCGGAUAAAAGUGGAGGGGGCGG, with 0.0637; and AACACUGCCAAUGCCGUUCCCAAGCCCGGAUAAAAGUGGAGGGGGUGG, with 0.625; and AACACUGCCAAUGCAGGUCCCAAGCUCGGAUAAAAGUGGAGGGGGCGG, with 0.0725.
Consider AACACUGCCAAUGCCGGUUCCAAGCCCGGAUAAAAGUGGAGGGGGCCG, for which the self-cleavage was 0.235.
AACACUGCCAAUACCGGUCCCAAGCCCGGAUACAAGUGGAGGGGGCGG: the self-cleavage is 0.825.
With AACACUGCCAAUGCCCGUCCCAAGCCGGGAUAAAAGUGGAGGGGGCGG the figure was 0.608.
Regarding AACACGGCCAAUGCCGGUCCCAAGCCCGGAUAAAAGUGGAUGGGGCGG, the self-cleavage was 0.129.
With AACACUGCCAAUGCCGGUCCCAAGCCCGGAUAAAAGUGGAGGGUGCAG the figure was 0.758; with AACACUGCCAAUGCCGGUCCCAAGCCAGGAUAAAAGUGGAGAGGGCGG, 0.0939.
Then AACACUGCCAAAGCCGGUCCCAAGCCAGGAUAAAAGUGGAGGGGGCGG, with 0.744; and AACACUGCCAAUGACGGUCCCAAGCCCGGCUAAAAGUGGAGGGGGCGG, with 0.819.
With AACACUGCCACUGCCGGUCCCAAGCCCGGAUAAAUGUGGAGGGGGCGG the figure was 0.942; with AACCCUGCCAAUGCCCGUCCCAAGCCCGGAUAAAAGUGGAGGGGGCGG, 0.0536.
On to AACACUGCCAAUGCCGGUCCCAAGCGCGGAUAAAAGUGGAGCGGGCGG, for which the self-cleavage is 0.139.
Then AACACUGCCAAUGCCGGUGCCAAGCCCGGAUAAAAGUGCAGGGGGCGG, with 0.162; and AACACUGCCAAUGCCGGUCCGAAGCCCGGAUAAAAGUGGGGGGGGCGG, with 0.0831.
On to AACACUGCCGAUGCCGGUCCCAAGACCGGAUAAAAGUGGAGGGGGCGG, for which the self-cleavage stood at 0.139.
For AACACUGCCAAUGCCGGUCCCAAGCCCGAAUCAAAGUGGAGGGGGCGG, the self-cleavage is 0.916.
In the case of AACACUGCCAAUGCCGGUCCCAAGGCCGGAUAAAAGUGGGGGGGGCGG, the self-cleavage came out at 0.129.
Then AACACUGCCAAUGCCGGACCCAAGCCCGGAUAAAAGUGGAAGGGGCGG, with 0.101; and AAUACUGCCAAUGCCUGUCCCAAGCCCGGAUAAAAGUGGAGGGGGCGG, with 0.183; and AACACUGCCAAUGCCGGUCCCAAGCCCGGAUAAAAUUGGAGCGGGCGG, with 0.16.
With AACACUACCAAUGCAGGUCCCAAGCCCGGAUAAAAGUGGAGGGGGCGG the figure was 0.111; with AACACUGCCAAUGCCGGCCCCAAGACCGGAUAAAAGUGGAGGGGGCGG, 0.105.
Then AACACUGCCACUGCCGGUACCAAGCCCGGAUAAAAGUGGAGGGGGCGG, with 0.136; and AACACUGCCAAUGCCCGUCCCAAGCCCGGAUAAAAGUGGAGGCGGCGG, with 0.161.
On to AACACUGCCAAUGACGGUCCCAAGCCCGGAUAAAAGUGGAGGGGCCGG, for which the self-cleavage came to 0.58.
Then CACACUGCCAAUGCCGGUCCCAAGCCCGGAUAAAAGUGAAGGGGGCGG, with 0.162; and AACACUACCAAUGCCGGUCCGAAGCCCGGAUAAAAGUGGAGGGGGCGG, with 0.0478; and AACACGGCCAAUGCCGGUCCCAAGCCCGAAUAAAAGUGGAGGGGGCGG, with 0.19.
With AACACUGCCAAUGCGGCUCCCAAGCCCGGAUAAAAGUGGAGGGGGCGG the figure was 0.157.
Then AACACUGCCAAUGCCGGUCCCAAGGCCGGAAAAAAGUGGAGGGGGCGG, with 0.482.
With AACACUGCCAAAGCCGGUCCCAAGCCCGGAUAAAAGUGGAUGGGGCGG, the self-cleavage was 0.772.
With AACACUGCCAAUGCUGGUCCCAAGCCCGGAUAAAAGUGGAGGGGGCAG the figure was 0.84; with AACACUGCCAACGCCGGUCCCAAGCCCGGAUAAAAGCGGAGGGGGCGG, 0.624.
With AACACUGCCAAAGCCGGCCCCAAGCCCGGAUAAAAGUGGAGGGGGCGG the figure was 0.623.
Then AACACUGCCAAUGCCGGUCCCAAUCCCGGAUAAAAGUGGAGGGGGGGG, with 0.081; and AACACUGCCAAUGCCGGUCCAAAGCCUGGAUAAAAGUGGAGGGGGCGG, with 0.0904; and AACACUGCCAAUACCGGUCCCAAUCCCGGAUAAAAGUGGAGGGGGCGG, with 0.13.
With AACACUGCCAAUGCCGGUCCCAAGCCCGGAUGAAAGUGGAGAGGGCGG, the self-cleavage is 0.319.
Then AACACUGCCAAUGCCGGUCCCAAGCCCGGAUGAAAGUGGAGCGGGCGG, with 0.38; and AACACUGCCAAUGCCGGUUCCAAGCCCGGAAAAAAGUGGAGGGGGCGG, with 0.682; and AACACUGCCAAUGCCGGUCCCAAUCCCGGAUAAAAGUGCAGGGGGCGG, with 0.0634.
With AACACUGCCAAUGGCGGUCCCAAGCCCGGAUAAAAGUGGAGGGGGCGC, the self-cleavage stood at 0.163.
